Assay results published in publication PMC9897197 (Brain, 2022).

What was measured:
[1] = Brain uptake; details: ISCP, 13.5-month-old female non-Tg vs 3xTg-AD mice; unpaired t-test
[2] = target: INSRβ (Mus musculus, UniProt P15208); test: Phosphorylation of INSRβ; type: in vivo; details: 6-month-old C57Bl6 mice
Sequence of INSRβ (P15208 28-746 limits assumed): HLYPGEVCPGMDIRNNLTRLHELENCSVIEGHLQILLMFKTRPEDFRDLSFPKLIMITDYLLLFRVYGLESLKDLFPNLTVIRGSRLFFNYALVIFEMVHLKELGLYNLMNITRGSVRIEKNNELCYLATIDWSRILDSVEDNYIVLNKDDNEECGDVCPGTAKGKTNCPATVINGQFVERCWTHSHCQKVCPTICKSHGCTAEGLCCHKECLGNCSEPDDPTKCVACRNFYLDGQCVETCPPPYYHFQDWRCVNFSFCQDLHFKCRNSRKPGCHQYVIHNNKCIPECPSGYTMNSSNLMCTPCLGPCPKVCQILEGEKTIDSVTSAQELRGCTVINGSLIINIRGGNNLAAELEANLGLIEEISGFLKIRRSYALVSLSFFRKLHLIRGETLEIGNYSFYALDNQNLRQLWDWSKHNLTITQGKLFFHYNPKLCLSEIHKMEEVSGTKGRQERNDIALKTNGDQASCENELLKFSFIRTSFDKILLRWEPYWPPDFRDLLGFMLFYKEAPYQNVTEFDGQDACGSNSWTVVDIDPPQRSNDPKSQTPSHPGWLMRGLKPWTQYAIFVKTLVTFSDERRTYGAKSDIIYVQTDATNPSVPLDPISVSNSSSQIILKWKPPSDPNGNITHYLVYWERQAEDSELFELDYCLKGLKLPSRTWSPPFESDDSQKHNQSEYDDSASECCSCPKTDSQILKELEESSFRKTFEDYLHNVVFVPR
Sequence of INSRβ (P15208 753-1372 limits assumed): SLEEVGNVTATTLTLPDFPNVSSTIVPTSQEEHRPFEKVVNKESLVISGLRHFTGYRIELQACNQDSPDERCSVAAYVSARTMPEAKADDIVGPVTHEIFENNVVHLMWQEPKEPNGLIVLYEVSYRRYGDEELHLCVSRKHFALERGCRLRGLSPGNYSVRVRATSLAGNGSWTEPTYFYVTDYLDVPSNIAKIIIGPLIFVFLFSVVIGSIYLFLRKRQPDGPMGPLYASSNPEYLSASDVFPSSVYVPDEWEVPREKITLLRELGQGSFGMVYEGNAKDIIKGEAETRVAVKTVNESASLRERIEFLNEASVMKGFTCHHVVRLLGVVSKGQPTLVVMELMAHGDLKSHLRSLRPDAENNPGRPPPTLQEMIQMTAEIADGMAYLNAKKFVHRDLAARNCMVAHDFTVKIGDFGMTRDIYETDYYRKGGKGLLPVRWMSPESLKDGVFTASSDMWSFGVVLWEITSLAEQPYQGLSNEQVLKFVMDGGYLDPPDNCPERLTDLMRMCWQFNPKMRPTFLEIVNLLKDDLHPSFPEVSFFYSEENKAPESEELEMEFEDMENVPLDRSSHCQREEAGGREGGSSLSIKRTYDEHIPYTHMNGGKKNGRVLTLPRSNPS

phosphorylation of INSRβ in microvessel-depleted parenchymal fraction ([2]; ISCP 120 s, insulin 350 nM, western blot)	time to INSRβ phosphorylation after intracarotid administration ([2]; insulin 0.4 mg/kg or 350 nM, ISCP) [s]	Substance	impact of 3xTg-AD transgenes on 125I-insulin transport [1]
		125I-insulin: radiolabelled insulin used for transport quantification	no significant impact
no trace was detected	≤ 120	insulin	
